Results published in PMC7774078.

Substrate: NS(=O)(=O)c1cc(C(=O)O)c(NCc2ccco2)cc1Cl
Test: cells, lysate or membranes
Details: ATP, Mg2+

B1: multidrug resistance-associated protein 4 (MRP4) (Homo sapiens) (protein)
chain: MLPVYQEVKPNPLQDANLCSRVFFWWLNPLFKIGHKRRLEEDDMYSVLPEDRSQHLGEELQGFWDKEVLRAENDAQKPSLTRAIIKCYWKSYLVLGIFTLIEESAKVIQPIFLGKIINYFENYDPMDSVALNTAYAYATVLTFCTLILAILHHLYFYHVQCAGMRLRVAMCHMIYRKALRLSNMAMGKTTTGQIVNLLSNDVNKFDQVTVFLHFLWAGPLQAIAVTALLWMEIGISCLAGMAVLIILLPLQSCFGKLFSSLRSKTATFTDARIRTMNEVITGIRIIKMYAWEKSFSNLITNLRKKEISKILRSSCLRGMNLASFFSASKIIVFVTFTTYVLLGSVITASRVFVAVTLYGAVRLTVTLFFPSAIERVSEAIVSIRRIQTFLLLDEISQRNRQLPSDGKKMVHVQDFTAFWDKASETPTLQGLSFTVRPGELLAVVGPVGAGKSSLLSAVLGELAPSHGLVSVHGRIAYVSQQPWVFSGTLRSNILFGKKYEKERYEKVIKACALKKDLQLLEDGDLTVIGDRGTTLSGGQKARVNLARAVYQDADIYLLDDPLSAVDAEVSRHLFELCICQILHEKITILVTHQLQYLKAASQILILKDGKMVQKGTYTEFLKSGIDFGSLLKKDNEESEQPPVPGTPTLRNRTFSESSVWSQQSSRPSLKDGALESQDTENVPVTLSEENRSEGKVGFQAYKNYFRAGAHWIVFIFLILLNTAAQVAYVLQDWWLSYWANKQSMLNVTVNGGGNVTEKLDLNWYLGIYSGLTVATVLFGIARSLLVFYVLVNSSQTLHNKMFESILKAPVLFFDRNPIGRILNRFSKDIGHLDDLLPLTFLDFIQTLLQVVGVVSVAVAVIPWIAIPLVPLGIIFIFLRRYFLETSRDVKRLESTTRSPVFSHLSSSLQGLWTIRAYKAEERCQELFDAHQDLHSEAWFLFLTTSRWFAVRLDAICAMFVIIVAFGSLILAKTLDAGQVGLALSYALTLMGMFQWCVRQSAEVENMMISVERVIEYTDLEKEAPWEYQKRPPPAWPHEGVIIFDNVNFMYSPGGPLVLKHLTALIKSQEKVGIVGRTGAGKSSLISALFRLSEPEGKIWIDKILTTEIGLHDLRKKMSIIPQEPVLFTGTMRKNLDPFNEHTDEELWNALQEVQLKETIEDLPGKMDTELAESGSNFSVGQRQLVCLARAILRKNQILIIDEATANVDPRTDELIQKKIREKFAHCTVLTIAHRLNTIIDSDKIMVLDSGRLKEYDEPYVLLQNKESLFYKMVQQLGKAEAAALTETAKQVYFKRNYPHIGHTDHMVTNTSNGQPSTLTIFETAL
For B1, which Km is on record?
Its Km is 27.96 µM.
